Results published in patent US10500249B2, “Compositions and methods for preventing or treating diseases, conditions, or processes characterized by aberrant fibroblast proliferation and extracellular matrix deposition” (MOERAE MATRIX, INC., priority 2014, dated 2019).

Legend:
Test in all cases: Kinase Profiling Assay
Format in all cases: biochemical
Settings in all cases: 100 μM
DCAMKL2 (h) = molecular target: T1, DCAMKL2 (h) (Homo sapiens, UniProt Q8N568)
T1 construct: purchased Millipore
T1 sequence (Q8N568 1-766): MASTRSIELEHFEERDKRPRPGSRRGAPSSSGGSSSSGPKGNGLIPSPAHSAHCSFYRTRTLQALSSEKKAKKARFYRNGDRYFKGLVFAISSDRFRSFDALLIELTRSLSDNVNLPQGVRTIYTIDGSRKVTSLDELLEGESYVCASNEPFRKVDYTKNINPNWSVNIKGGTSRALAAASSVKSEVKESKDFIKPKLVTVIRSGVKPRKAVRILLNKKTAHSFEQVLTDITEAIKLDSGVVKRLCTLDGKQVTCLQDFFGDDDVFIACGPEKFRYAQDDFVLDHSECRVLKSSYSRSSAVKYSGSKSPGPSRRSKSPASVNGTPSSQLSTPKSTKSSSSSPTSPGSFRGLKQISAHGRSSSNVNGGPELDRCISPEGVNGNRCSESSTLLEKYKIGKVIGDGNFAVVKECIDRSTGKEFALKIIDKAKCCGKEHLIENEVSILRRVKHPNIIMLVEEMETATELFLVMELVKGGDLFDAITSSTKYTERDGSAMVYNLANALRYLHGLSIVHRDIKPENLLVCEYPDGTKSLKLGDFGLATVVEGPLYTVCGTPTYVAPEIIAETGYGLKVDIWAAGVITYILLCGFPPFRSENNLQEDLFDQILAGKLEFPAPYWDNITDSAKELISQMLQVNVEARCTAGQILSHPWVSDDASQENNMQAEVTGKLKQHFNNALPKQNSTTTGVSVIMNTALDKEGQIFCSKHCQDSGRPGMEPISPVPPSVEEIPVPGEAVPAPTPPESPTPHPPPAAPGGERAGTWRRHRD
Procedure, shortened: (§1)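 Each kinase activity was measured in duplicate. Phosphorylation of a positively charged substrate with radiolabeled phosphate from ATP was captured on a negatively charged filter, counted by scintillation and expressed relative to a 100% activity control. MK2 inhibitory peptides were screened for specificity across 266 human kinases.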

Flt4 (h) = Flt4 (h) (Homo sapiens, UniProt P35916)
Chain of Flt4 (h) (P35916 25-1363): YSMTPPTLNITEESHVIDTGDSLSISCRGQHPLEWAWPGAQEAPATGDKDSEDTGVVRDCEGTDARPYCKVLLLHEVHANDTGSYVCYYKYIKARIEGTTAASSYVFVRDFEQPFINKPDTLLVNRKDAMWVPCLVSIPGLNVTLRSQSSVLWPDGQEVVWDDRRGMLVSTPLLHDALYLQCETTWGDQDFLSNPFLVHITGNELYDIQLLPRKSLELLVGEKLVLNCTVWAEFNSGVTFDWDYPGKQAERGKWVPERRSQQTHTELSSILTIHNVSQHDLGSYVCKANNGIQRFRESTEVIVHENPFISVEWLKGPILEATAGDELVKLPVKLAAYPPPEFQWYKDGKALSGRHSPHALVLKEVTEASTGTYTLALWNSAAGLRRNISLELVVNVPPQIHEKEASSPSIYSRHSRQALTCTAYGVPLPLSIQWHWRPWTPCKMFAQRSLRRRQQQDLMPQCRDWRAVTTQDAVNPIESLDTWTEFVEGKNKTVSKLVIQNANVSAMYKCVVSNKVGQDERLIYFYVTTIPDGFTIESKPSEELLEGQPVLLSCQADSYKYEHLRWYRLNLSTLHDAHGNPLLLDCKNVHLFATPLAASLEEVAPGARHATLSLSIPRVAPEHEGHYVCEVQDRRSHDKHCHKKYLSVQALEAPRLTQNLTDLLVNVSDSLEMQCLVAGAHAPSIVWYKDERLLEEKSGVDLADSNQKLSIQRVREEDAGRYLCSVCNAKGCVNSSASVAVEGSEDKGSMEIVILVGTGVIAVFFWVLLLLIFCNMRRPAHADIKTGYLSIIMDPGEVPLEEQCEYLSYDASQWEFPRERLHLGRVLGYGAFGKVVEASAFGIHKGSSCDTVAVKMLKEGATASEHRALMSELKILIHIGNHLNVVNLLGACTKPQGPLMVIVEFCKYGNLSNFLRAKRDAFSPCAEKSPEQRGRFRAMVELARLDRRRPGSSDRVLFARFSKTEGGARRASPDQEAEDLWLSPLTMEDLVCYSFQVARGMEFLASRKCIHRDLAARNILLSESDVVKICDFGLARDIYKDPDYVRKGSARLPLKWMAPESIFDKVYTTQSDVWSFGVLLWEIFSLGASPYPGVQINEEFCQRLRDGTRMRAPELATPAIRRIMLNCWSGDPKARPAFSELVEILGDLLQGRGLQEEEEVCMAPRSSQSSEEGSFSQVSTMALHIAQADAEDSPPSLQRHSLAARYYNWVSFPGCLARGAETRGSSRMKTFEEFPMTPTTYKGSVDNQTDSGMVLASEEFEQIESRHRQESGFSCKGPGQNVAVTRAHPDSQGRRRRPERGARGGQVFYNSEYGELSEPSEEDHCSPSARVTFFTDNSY
Procedure, shortened: as §1

IR (h) = molecular target: T2, IR (h) (Homo sapiens, UniProt P06213)
T2 construct: purchased Millipore
Procedure, shortened: as §1

FGFR2 (h) = FGFR2 (h) (Homo sapiens, UniProt P21802)
Procedure, shortened: as §1

MAPKAP-K3 (h) = MAPKAP-K3 (h) (Homo sapiens, UniProt Q16644)
Chain of MAPKAP-K3 (h) (Q16644 whole entry): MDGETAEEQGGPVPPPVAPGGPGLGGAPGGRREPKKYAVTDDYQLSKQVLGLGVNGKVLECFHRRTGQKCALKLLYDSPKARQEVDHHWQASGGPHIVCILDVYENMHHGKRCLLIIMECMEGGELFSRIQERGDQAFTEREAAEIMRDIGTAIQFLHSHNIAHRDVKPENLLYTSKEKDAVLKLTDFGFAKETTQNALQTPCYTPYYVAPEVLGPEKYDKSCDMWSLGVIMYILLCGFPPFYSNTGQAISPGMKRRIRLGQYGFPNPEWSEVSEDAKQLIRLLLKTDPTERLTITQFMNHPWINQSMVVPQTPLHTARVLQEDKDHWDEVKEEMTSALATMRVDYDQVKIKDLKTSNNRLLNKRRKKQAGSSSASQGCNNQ
Procedure, shortened: as §1

Haspin (h) = molecular target: T3, Haspin (h) (Homo sapiens, UniProt Q8TF76)
T3 construct: purchased Millipore
T3 sequence (Q8TF76 1-798): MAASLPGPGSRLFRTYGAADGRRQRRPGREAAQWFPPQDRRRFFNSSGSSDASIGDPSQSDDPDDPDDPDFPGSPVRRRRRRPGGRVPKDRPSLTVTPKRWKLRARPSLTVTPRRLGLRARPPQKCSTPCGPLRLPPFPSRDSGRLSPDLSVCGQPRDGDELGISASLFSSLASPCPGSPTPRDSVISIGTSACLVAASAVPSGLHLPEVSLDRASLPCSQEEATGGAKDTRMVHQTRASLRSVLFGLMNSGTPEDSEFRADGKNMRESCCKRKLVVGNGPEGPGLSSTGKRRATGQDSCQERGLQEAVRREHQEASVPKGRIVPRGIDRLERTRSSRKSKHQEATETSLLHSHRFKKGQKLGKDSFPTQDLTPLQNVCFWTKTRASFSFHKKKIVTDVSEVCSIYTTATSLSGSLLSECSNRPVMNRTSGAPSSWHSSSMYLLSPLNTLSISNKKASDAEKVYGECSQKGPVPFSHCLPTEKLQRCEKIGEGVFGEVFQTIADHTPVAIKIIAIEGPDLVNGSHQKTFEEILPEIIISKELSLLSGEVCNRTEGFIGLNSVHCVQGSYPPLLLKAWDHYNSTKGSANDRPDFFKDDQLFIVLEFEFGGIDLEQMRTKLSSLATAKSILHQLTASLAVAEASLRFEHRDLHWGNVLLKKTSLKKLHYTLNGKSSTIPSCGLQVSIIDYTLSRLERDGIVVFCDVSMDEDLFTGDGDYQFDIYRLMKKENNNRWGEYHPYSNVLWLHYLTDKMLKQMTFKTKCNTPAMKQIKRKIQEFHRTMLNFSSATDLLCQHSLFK
Procedure, shortened: as §1

BTK(R28H) (h) = BTK(R28H) (h) (Homo sapiens, UniProt Q06187, R28H)
Chain of BTK(R28H) (h) (Q06187 whole entry R28H): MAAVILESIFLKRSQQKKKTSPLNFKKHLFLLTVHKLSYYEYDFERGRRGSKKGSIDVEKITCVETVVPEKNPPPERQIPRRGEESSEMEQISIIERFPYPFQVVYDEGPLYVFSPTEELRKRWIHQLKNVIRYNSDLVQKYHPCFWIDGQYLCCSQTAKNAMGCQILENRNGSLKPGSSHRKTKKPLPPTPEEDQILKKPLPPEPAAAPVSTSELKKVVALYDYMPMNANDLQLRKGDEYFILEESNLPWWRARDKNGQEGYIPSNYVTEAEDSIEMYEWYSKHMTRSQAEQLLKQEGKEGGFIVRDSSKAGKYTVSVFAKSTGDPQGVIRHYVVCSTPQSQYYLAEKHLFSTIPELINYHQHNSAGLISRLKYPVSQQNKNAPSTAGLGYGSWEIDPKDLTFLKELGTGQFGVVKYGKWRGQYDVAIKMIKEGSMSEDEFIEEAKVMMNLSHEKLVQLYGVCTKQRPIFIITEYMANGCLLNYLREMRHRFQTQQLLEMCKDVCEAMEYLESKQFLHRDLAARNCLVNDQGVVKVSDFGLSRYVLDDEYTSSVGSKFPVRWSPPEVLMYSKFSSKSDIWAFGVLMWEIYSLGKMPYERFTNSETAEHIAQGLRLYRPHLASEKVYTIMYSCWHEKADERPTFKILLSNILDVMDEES
Procedure, shortened: as §1

AMPKα2 (h) = AMPKα2 (h) (Homo sapiens, UniProt P54646)
Chain of AMPKα2 (h) (P54646 whole entry): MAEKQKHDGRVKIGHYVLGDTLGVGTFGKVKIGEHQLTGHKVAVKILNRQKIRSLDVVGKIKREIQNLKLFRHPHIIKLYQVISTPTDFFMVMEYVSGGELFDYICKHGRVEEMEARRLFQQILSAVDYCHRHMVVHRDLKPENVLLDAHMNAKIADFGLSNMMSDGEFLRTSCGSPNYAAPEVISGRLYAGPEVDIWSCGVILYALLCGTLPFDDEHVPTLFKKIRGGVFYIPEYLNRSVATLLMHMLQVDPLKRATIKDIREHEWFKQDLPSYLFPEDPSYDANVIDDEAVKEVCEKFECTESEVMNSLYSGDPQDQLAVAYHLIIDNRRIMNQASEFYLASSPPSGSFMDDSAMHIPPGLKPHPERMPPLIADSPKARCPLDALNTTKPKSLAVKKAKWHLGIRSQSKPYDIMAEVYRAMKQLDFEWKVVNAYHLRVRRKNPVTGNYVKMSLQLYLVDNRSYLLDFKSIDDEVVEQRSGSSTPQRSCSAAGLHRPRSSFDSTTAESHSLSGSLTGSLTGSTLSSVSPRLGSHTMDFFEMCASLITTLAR
Chain of AMPKα2 (h) (Q9Y478 whole entry partner): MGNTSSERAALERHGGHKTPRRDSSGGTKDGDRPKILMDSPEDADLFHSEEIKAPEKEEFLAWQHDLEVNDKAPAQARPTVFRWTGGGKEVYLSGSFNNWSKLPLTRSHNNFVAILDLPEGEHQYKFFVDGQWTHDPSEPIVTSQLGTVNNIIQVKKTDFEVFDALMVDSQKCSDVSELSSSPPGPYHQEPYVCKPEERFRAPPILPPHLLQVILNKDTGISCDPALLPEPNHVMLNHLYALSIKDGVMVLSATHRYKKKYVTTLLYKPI
Chain of AMPKα2 (h) (P54619 whole entry partner): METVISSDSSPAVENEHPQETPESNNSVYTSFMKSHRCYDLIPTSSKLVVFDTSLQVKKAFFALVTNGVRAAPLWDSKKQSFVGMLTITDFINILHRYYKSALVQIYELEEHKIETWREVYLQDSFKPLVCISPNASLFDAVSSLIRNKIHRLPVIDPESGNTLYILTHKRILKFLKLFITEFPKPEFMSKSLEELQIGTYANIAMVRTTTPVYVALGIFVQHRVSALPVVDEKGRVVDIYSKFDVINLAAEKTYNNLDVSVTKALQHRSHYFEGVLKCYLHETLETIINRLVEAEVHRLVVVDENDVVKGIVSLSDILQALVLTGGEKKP
Procedure, shortened: as §1

Flt3 (h) = Flt3 (h) (Homo sapiens, UniProt P36888)
Procedure, shortened: as §1

cKit(D816V) (h) = molecular target: T4, cKit(D816V) (h) (Homo sapiens, UniProt P10721, D816V)
T4 construct: purchased Millipore
Procedure, shortened: as §1

PKCβII (h) = molecular target: T5, PKCβII (h) (Homo sapiens, UniProt P05771)
T5 construct: purchased Millipore
T5 sequence (P05771 1-673 isoform P05771-2): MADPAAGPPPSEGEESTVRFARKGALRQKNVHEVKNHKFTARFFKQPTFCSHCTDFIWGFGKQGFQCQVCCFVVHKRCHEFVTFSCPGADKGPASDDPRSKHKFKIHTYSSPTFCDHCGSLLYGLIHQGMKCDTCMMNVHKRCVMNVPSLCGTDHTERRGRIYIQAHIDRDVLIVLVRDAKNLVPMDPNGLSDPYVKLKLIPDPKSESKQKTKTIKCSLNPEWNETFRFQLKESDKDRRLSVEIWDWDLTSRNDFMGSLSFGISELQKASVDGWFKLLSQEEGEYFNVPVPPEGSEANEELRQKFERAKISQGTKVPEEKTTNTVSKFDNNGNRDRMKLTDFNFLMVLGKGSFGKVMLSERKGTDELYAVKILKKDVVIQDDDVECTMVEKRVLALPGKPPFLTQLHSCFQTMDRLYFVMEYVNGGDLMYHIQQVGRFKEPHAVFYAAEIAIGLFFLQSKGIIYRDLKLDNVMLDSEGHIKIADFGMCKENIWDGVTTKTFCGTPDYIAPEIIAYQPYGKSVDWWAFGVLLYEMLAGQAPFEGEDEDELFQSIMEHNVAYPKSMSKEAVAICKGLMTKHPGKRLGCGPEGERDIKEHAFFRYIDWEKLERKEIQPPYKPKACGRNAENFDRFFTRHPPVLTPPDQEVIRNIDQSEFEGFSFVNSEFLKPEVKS
Procedure, shortened: as §1

Sequence	% activity (DCAMKL2 (h)) [%]	% activity (Flt4 (h)) [%]	% activity (IR (h)) [%]	% activity (FGFR2 (h)) [%]	% activity (MAPKAP-K3 (h)) [%]	% activity (Haspin (h)) [%]	% activity (BTK(R28H) (h)) [%]	% activity (AMPKα2 (h)) [%]	% activity (Flt3 (h)) [%]	% activity (cKit(D816V) (h)) [%]	% activity (PKCβII (h)) [%]
FAKLAARLYRKALARQLGVAA [MMI-0300]	81	83	96	14	3	48	74	54	84	60	82
HRRIKAWLKKIKALARQLGVAA (Mammalian) [MMI-0500]	56	73	95	12	9	25	10	9	17	30	3
KAFAKLAARLYRKALARQLGVAA [MMI-0400]	70	89	85	18	7	36	24	58	18	35	75
YARAAARQARAKALNRQLGVA (Mammalian) [MMI-0200]	131	–	90	73	39	71	–	88	99	118	100
